Laboratory results published in paper PMC1283537 (2005).

Biological target: T1, Scd5 DxxDxxxD motif peptide (Saccharomyces cerevisiae, UniProt P34758)
T1 chain: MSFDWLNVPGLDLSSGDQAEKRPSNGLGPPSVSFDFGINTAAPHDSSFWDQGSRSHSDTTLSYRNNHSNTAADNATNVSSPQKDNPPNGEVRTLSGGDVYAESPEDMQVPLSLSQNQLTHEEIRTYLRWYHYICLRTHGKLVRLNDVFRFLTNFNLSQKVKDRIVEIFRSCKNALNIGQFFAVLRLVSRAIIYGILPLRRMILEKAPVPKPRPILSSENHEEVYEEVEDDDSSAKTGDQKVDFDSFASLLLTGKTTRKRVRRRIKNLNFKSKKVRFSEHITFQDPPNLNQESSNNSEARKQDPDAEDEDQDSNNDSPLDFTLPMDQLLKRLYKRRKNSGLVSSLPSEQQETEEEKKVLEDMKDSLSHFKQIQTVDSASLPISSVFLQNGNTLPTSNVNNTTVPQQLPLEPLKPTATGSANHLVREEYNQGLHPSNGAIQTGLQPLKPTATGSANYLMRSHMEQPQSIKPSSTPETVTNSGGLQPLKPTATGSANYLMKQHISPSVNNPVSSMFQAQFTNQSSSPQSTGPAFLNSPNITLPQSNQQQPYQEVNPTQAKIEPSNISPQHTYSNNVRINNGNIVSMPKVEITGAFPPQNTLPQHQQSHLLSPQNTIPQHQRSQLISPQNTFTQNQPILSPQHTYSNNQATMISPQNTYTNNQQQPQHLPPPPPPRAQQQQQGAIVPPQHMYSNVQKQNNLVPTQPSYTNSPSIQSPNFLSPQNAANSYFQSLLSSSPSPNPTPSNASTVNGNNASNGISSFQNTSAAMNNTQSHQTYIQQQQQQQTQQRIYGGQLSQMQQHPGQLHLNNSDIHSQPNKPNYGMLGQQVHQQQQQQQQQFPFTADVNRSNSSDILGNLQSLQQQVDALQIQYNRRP
Experiment: fluorescence polarization

- Kd: 22 µM
B1: PP1 (Glc7) (protein)
chain: MDSQPVDVDNIIDRLLEVRGSKPGQQVDLEENEIRYLCSKARSIFIKQPILLELEAPIKICGDIHGQYYDLLRLFEYGGFPPESNYLFLGDYVDRGKQSLETICLLLAYKIKYPENFFILRGNHECASINRIYGFYDECKRRYNIKLWKTFTDCFNCLPIAAIIDEKIFCMHGGLSPDLNSMEQIRRVMRPTDIPDVGLLCDLLWSDPDKDIVGWSENDRGVSFTFGPDVVNRFLQKQDMELICRAHQVVEDGYEFFSKRQLVTLFSAPNYCGEFDNAGAMMSVDESLLCSFQILKPAQKSLPRQAGGRKKK
modifications: fluorescently labelled peptide
